These are literature values, as cited in US20220133873A1, “CANCER THERAPY” (Madison Vaccines Inc., priority 2019, published 2022).

For data set [1] the following is noted: intravenously or subcutaneously, doses 50 to 500 μg/m2/day.
The test system of data set [2] is advanced (metastatic) melanoma. The settings on record: 173 patients, 2 mg/kg or 10 mg/kg at 3-week intervals.

For the substance “GM-CSF: Granulocyte-macrophage colony-stimulating factor, vaccine adjuvant”, in data set [1], the tolerability result was “generally well tolerated”. Regarding pembrolizumab, the “drug-related grade 3 or 4 adverse event reported in more than one patient” value in data set [2] is “Grade 3 fatigue”. Besides, the overall response rate in data set [2] (irrespective of dose) is 26%.
